Experimental data as given in US20140274782A1, “AFFINITY REAGENTS AND METHODS FOR DETECTION, PURIFICATION, AND PROTEOMIC ANALYSIS OF METHYLATED PROTEINS” (The Board of Trustees of the Leland Stanford Junior …, priority 2013, published 2014).

Molecular target: T1, G9a and GLP (Homo sapiens, UniProt Q96KQ7+Q9H9B1)
T1 construct: endogenous in cells; host or cells: HEK 293T
T1 sequence (Q96KQ7 2-1210 limits assumed): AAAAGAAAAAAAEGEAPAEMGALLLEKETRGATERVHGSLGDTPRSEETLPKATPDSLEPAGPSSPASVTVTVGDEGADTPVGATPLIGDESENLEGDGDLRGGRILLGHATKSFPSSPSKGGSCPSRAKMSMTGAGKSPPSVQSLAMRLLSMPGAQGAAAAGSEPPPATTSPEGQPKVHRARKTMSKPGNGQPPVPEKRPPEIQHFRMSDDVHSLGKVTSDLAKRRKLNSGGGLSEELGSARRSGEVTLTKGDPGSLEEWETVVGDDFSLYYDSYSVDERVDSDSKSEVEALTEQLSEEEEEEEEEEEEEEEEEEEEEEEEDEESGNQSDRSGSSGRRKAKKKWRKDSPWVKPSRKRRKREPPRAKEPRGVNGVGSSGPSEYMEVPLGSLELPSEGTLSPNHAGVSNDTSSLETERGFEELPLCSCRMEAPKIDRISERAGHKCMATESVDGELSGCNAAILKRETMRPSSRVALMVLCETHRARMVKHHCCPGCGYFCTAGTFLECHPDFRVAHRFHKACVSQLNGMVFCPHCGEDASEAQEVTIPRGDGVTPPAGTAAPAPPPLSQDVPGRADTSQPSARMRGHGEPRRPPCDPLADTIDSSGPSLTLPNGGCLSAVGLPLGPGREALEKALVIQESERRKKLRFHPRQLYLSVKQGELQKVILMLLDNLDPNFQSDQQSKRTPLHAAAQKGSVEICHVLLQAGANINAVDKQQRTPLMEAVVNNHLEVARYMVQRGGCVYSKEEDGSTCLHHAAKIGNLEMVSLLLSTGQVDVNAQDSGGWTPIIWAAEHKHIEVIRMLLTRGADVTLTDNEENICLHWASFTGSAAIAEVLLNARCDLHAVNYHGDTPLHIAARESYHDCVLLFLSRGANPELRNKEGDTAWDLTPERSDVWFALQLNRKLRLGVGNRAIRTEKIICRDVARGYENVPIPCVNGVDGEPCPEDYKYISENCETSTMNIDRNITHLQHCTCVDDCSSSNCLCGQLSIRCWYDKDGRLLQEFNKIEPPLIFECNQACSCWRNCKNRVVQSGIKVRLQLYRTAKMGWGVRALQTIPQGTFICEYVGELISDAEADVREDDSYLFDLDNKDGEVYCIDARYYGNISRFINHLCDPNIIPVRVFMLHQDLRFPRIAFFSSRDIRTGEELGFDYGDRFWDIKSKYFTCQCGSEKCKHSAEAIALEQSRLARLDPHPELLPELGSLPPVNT
T1 sequence (Q9H9B1 2-1298 limits assumed): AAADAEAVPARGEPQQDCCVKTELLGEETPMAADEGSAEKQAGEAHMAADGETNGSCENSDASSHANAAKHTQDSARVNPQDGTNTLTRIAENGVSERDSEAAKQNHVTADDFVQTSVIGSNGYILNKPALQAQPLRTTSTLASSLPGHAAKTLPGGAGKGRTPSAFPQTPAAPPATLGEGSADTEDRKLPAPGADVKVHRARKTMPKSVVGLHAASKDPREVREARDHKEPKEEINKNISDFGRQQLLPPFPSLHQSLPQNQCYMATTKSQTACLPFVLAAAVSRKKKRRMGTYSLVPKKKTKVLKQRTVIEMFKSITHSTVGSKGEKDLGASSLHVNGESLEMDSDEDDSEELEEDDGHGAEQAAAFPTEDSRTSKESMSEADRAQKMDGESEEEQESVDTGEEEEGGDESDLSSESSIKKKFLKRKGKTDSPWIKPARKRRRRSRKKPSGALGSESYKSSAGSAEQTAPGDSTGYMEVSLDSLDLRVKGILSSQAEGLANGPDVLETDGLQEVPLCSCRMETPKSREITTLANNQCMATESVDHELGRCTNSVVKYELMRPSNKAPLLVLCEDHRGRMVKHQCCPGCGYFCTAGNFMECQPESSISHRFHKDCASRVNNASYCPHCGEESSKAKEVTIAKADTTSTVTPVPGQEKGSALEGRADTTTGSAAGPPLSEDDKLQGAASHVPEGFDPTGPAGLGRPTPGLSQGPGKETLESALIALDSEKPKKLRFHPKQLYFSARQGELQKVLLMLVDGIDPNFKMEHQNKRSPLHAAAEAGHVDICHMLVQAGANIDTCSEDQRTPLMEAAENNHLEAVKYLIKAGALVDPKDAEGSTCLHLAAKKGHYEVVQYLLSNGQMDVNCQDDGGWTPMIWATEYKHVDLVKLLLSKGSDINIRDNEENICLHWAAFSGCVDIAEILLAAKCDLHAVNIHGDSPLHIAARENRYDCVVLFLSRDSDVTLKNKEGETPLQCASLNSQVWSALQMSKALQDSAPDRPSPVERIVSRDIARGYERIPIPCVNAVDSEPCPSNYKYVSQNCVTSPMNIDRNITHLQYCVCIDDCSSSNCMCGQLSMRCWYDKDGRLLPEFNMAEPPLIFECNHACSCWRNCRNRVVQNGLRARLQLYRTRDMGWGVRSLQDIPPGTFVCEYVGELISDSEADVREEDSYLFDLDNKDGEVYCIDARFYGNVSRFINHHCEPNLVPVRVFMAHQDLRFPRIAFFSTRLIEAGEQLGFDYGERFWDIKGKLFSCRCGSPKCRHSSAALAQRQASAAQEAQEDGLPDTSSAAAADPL
Assay: Triple SILAC pull-down after UNC0638 treatment of 293T cells, DMSO/UNC0638 ratio of protein captured by 3×MBT;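 note: mass spectrometry (Q-Exactive) SILAC quantitation, DMSO/UNC0638 ratio computed after subtracting 3×MBTD355N mutant pull-down background, only proteins with at least twofold 3×MBT over mutant signal considered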
Assay type: cell-based
Settings: for Relative to UNC0638 UNC Heavy / Relative to UNC0638 UNC Light: SILAC ratio DMSO/UNC0638 of protein pulled down with 3xMBT; for Relative to UNC0638 UNC Heavy: UNC0638 in heavy SILAC media; for Relative to UNC0638 UNC Light: UNC0638 in light SILAC media; for Relative to UNC0638 Average: average of UNC Light and UNC Heavy experiments; for Protein Ratios DMSO/UNC0638: SILAC ratio of protein captured by 3xMBT, 293T cells treated 24 hours with UNC0638 at 2.5 μM or DMSO; for Candidate G9a/GLP target: reduced association with 3xMBT after UNC0638 treatment

Substance | Relative to UNC0638 UNC Heavy [log base 2] | Relative to UNC0638 UNC Light [log base 2] | Relative to UNC0638 Average [log base 2] | Protein Ratios DMSO/UNC0638 | Candidate G9a/GLP target
SSRP1: protein with methylated lysine identified in 3xMBT pull-down | 0.00 | 0.26 | 0.13 |  | 
RBM25: protein with methylated lysine identified in 3xMBT pull-down | 0.25 | 0.29 | 0.27 |  | 
MSH6: protein with methylated lysine identified in 3xMBT pull-down | 0.18 | 0.06 | 0.12 |  | 
DNA ligase 1 | 0.83 | 1.06 | 0.95 | 1.9 | ✓
MCM7: protein with methylated lysine identified in 3xMBT pull-down | 0.12 | 0.10 | 0.11 |  | 
Protein Wiz | 0.83 | 0.29 | 0.56 | 1.5 | ✓
